The values that follow come from paper PMC11852716, “c-di-GMP phosphodiesterase ProE interacts with quorum sensing protein PqsE to promote pyocyanin production in Pseudomonas aeruginosa” (mSphere, 2025).

Conditions in all cases: both partners purified
Test [1] addresses T1, c-di-GMP phosphodiesterase ProE (Pseudomonas aeruginosa, UniProt Q9HTQ9 1-558).
T1 construct: ProE, c-di-GMP phosphodiesterase of Pseudomonas aeruginosa PAO1; also called PDE ProE
T1 sequence: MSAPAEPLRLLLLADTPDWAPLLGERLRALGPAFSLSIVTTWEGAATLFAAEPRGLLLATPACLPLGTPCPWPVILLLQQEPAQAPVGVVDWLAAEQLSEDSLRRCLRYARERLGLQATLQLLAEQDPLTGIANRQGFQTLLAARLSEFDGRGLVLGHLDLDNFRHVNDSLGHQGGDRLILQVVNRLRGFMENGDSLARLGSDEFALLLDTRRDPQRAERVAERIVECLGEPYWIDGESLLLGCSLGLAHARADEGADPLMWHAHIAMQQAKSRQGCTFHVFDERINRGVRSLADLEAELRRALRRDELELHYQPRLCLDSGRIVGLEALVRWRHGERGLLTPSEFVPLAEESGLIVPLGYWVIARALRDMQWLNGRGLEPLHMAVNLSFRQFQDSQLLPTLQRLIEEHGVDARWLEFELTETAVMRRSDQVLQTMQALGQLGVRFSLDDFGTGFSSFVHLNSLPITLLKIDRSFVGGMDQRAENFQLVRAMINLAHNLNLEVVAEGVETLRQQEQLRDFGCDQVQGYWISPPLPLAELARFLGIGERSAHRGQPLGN
The experiment in a line: SPR; Biacore T200, 25°C, PBST pH 7.4; PqsE amine-coupled on CM5 chip, ProE injected with 10 mM Mg2+.

The target in test [2] is T1, c-di-GMP phosphodiesterase ProE. The experiment in a line: SPR; Biacore T200, 25°C, PBST pH 7.4; PqsE amine-coupled on CM5 chip, ProE injected with 100 µM c-di-GMP.
Test [3] shares this target. The experiment in a line: SPR; Biacore T200, 25°C, PBST pH 7.4; PqsE amine-coupled on CM5 chip (8,000 RU), ProE injected; 1:1 Langmuir or steady-state affinity model.
Test [4] has the same target. The experiment in a line: ITC; MicroCal VP-ITC, 25°C; ProE (printed 'Thirty micrometers') in the cell titrated with 300 µM PqsE; PBS with 5 mM β-mercaptoethanol; single set of identical sites model.

B1: PQS quorum sensing protein PqsE (natural protein)
chain: MLRLSAPGQLDDDLCLLGDVQVPVFLLRLGEASWALVEGGISRDAELVWADLCRWVADPSQVHYWLITHKHYDHCGLLPYLCPRLPNVQVLASERTCQAWKSESAVRVVERLNRQLLRAEQRLPEACAWDALPVRAVADGEWLELGPRHRLQVIEAHGHSDDHVVFYDVRRRRLFCGDALGEFDEAEGVWRPLVFDDMEAYLESLERLQRLPTLLQLIPGHGGLLRGRLAADGAESAYTECLRLCRRLLWRQSMGESLDELSEELHRAWGGQSVDFLPGELHLGSMRRMLEILSRQALPLD
notes: PqsE of the PQS quorum sensing system, Pseudomonas aeruginosa PAO1; DNA fragment encoding pqsE cloned into pET28b(+); source: E. coli BL21(DE3), pET28b(+), purified (Ni-NTA)
On to B1, for which the Kd came out at 2270 nM in test [1], 2210 nM in test [2], 3.21 µM in test [3] and 5.46 µM in test [4].
